# B1: Rice OsPHT1;11 (OsPT11) (natural protein)
# chain: MADADGGSNLAVLDALDSARTQMYHMKAIVIAGMGFFTDAYDLFCISTVSKLLGRLYYQPDGSTDSKPGALSKTANNMVIGVALVGTLMGQLVFGYFGDKLGRKRVYGVTLILMAACAIGSGLSFGSSRKAVIGTLCFFRFWLGFGIGGDYPLSATIMSEYSNKKTRGAFIAAVFAMQGVGIIFAGLVSMIVSSIFLTYNKAPSYKGNHDLSRQMPAADYVWRIVLMIGAFPALATFYWRMKMPETARYTAIIDGNAKQAANDMQKVLSIEIEAEQEKLAKFNAANNYPLLSMEFARRHGLHLIGTTTTWFLLDIAFYSQNLTQKDIFPAMGLISGAAEVNALTEMFQISKASFLVALLGTFPGYWVTVALIDKMGRYMIQLIGFFMMSMFMLAMGILYDYLKTHHFLFGLLYALTFFFANFGPNSTTFVLPAELFPTRVRSTCHAISAAAGKAGAIVAAFGIQKLTYNSQVKSIKKALIILSITNMLGFFFTFLVPETMGRSLEEISGEDGNTGAGGGGAPAAANAGVGVSASDVSRDEKFPASSTEWQTSMHA
# Target: the molecule itself
# Experiment: cryo-EM structure
protein,measurement,value
B1,stoichiometry N,2
